Molecular target: T1, His-Bub1TPR (fission yeast Bub1 residues 22-184) (S. pombe, UniProt O94751 22-184)
T1 construct: Bub1, S. pombe, TPR domain, residues 22-184; Cloned into pET-DUET; also called recombinant Bub1-TPR; source: E. coli ArcticExpress, purified (cobalt IMAC, dialysis); not shown: His, N-terminal, kept
T1 sequence (looked up): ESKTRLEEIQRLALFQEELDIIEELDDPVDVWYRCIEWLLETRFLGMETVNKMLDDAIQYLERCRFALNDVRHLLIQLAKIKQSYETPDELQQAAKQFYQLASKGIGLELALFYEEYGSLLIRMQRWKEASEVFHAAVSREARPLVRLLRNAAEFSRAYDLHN
Assay: SEC; Superdex 200 increase 10/300 in 50 mM Tris pH 8.0, 150 mM NaCl, 5% glycerol, 2 mM DTT; proteins alone and mixed, fractions on SDS-PAGE
Conditions: both partners purified

B1: His-GFP-Mad3TPR (fission yeast Mad3 residues 44-201) (domain or fragment, S. pombe, UniProt O59767 44-201, looked up)
chain: TEKEVAGLQKERMGHERKIETSESLDDPLQVWIDYIKWTLDNFPQGETKTSGLVTLLERCTREFVRNPLYKDDVRYLRIWMQYVNYIDEPVELFSFLAHHHIGQESSIFYEEYANYFESRGLFQKADEVYQKGKRMKAKPFLRFQQKYQQFTHRWLEF
notes: Mad3, S. pombe, TPR domain, residues 44-201; Cloned into the 9GFP (N-terminal His-GFP tag) LIC vector; source: E. coli ArcticExpress, purified (cobalt IMAC, dialysis); not shown: His, N-terminal, kept; GFP, N-terminal, kept
- binding result: binds

Source: paper PMC6657678, “The Bub1-TPR Domain Interacts Directly with Mad3 to Generate Robust Spindle Checkpoint Arrest” (Current Biology, 2019)
